Test results published in US20230295324A1.

What was measured:
[1] = target: human OX40 on cells (CHO-K1/hu OX40) (human) (UniProt P43489); assay: FACS, blocking of biotin-human OX40L on CHO-K1/hu OX40 cells
[2] = target: human OX40 on cells (CHO-K1/hu OX40) (human) (UniProt P43489); assay: FACS, CHO-K1/hu OX40 cells
[3] = target: human OX40 on cells (CHO-K1/hu OX40) (human) (UniProt P43489); assay: cell-based or functional assay

Sequence of human OX40 on cells (CHO-K1/hu OX40) (human) (P43489 29-277): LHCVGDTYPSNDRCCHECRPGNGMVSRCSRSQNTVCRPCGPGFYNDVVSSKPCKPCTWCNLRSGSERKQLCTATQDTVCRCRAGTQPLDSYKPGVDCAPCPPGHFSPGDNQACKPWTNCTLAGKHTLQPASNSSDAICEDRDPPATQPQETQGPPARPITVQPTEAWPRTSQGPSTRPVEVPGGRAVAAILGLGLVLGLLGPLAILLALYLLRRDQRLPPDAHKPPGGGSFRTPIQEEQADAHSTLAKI

Maximum inhibition rate (%) [1]: 0%
Maximum MFI [2]: 501 MFI
EC50, HEK293/OX40/NF-kb luciferase reporter [3]: 136 nM
Maximum fluorescence signal value, HEK293/OX40/NF-kb luciferase reporter [3]: 140000 luminescence
B1: PR002075 (antibody, human IgG1, V domains shown)
VH: EVQLVETGGGLIQPGGSLRLSCAASGFTFSSYAMSWVRQAPGKGLEWVSAISGSGGNTYYADSVRGRFTISRDNSKNTLYLQMNSLRAEDTAVYYCANGITGTTDVDYWGQGTRVTVSS
